Experiment: yeast display, Sf9 membrane polyspecificity reagent, FACS + sequencing; frameworks hold sequencing errors
In short: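 A synthetic nanobody library was expressed on Saccharomyces cerevisiae BJ5465 by galactose induction for 36–48 hours. The library was stained for 1 hour at 4 °C with 10% biotinylated, detergent-solubilized Sf9 membrane reagent and enriched with streptavidin microbeads before FACS. Low and high (top ~1%) gates were set on anti-HA fluorescence for expression and streptavidin fluorescence for reagent binding, and each polyreactivity label reflects the gate of origin.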

Sequence	polyreactivity (PSR sort gate)
QDQLVESGGGLVQAGGIHRLICDSSGFIFWDNAMGCSRQAPGKEREFVAAISQRCTRTYYADSVKGRFTISRDNAKKTVFFPLNSLKPEDTGVYYCNRGGWRQFDSWGQGTQVTVSS	high polyreactivity
QDQLVESGGGLVQAGGILRLSCAASGRTFLPNAMGWYRQSPGKEREFVASINGDGTTYYADSVKGRFTISRDNAKNTVYLQMNSLKPEDTAVYYCAKDRDFSSPPTESGFDFWGQGTQVTVSS	low polyreactivity
QDQLVESGGGLVQAGGRLRLSCAASGRTFYWNAMGWNRQAPGKEREMVAAITRGGSTTYADSVKGRFTISRDNAKNTVYLQMNSLKPEDTAVYYCNKVYSLWPGYRYDYWGQGTQVTVSS	high polyreactivity
QDQLVESGGGLVQAGGRLRLSCAASGSIFLKYSMGWYRQAPGKVRELVAVISQSGGRTYYADSVKGRFTISRDNAKNTVYLQMNILKPEETAVYYCNVDISWLRRKFDYWGQGTQVTVSS	low polyreactivity
QDQLVESGGGLVQAGGSLGLSCAASGLTFSYYAMAWYRQAPGKERELVAAIDYSGGTTYADSVKGRFTISRDNAKNTVYLQMNSLKPEDTAVYYCADAPDGWFASGDEYWGQGTQVTVSS	high polyreactivity
QDQLVESGGGLVQAGGSLPLSCAASGFTYSSYAMGWYRHAPGKERELVATISRSGSTTYYADSVKGRFTISRDNAKNTVYFQMNSLKPEDTAVYYCAKAYYPGGYWGQGTQVTVSS	high polyreactivity
QDQLVESGGGLVQAGGSLRISCAASGFTFDENAMGWYRQAPGINYSGASTYYADSVKGRFTISRDNAKNTVYLQMYSLKPEDTAVYYCAAEVVALMNYWGQGSQVTVSS	low polyreactivity
QDQLVESGGGLVQAGGSLRISCDASGTTFQTYVMGWYRQAPGKERELVAAISSGGSTNYADSVKGRFTISRDNAKNTVYLQMNSLKPEDTAVYYCAKRWPYFRRGKDGYWGQGTQVTVSS	low polyreactivity
QDQLVESGGGLVQAGGSLRLICAASGGIFLVYTMGWYRQAPGKERELVAAITSGGSTKYADSVKGRFTISRDNAKNTVYLQMNSLKPEDTAVYYCAAYRRSWRYPSVRYYKYDYWGQGTQVTVSS	high polyreactivity
QDQLVESGGGLVQAGGSLRLICAASGNTLGYYAMVCYRQATGKERELVATISDDGTTYYADSVKGLFTISRDNAKNSVYLQMNSLKPEDTAVYYCATDGSAQYSMDYWGQGTQVTVSS	low polyreactivity
QDQLVESGGGLVQAGGSLRLICAASGSILSGYAMGWYRQAPGKERELVAAITSGGDTNYADSVKGRFTISRDNAKNTVYLQMNSLKPEDTAVYYCNRRGDFRIAYYDPMDYWGQGTQVTVSS	low polyreactivity
QDQLVESGGGLVQAGGSLRLICAASGSTFDSYAMGWYRQAPGKERELVAAITRSVGSTYYADSVKGRFTISRDNAKYTVYLLMKSLKPEDTAVYYCAARGEWAIYVEFDYWGQGTQVTVSS	low polyreactivity
QDQLVESGGGLVQAGGSLRLICAASGSTFEYNAMGWSRHAPGKERELVASSTNYADSVKGRFTISRDNAKNTVYLQMNSLIPEDTAVYYCAREHGVNRNHDYWGQGTQVTVSS	low polyreactivity
QDQLVESGGGLVQAGGSLRLICASSGSNFESNTMGWYRQAPGKERELLAAINWSGGRTYYADSVKGRFSISRDNAKNTVYLQINSLKPEDTAVYYCATGTYSDYKLGQQLWGRYNYWGQGTQVSVSS	high polyreactivity
QDQLVESGGGLVQAGGSLRLISAASGSTFRKYAMGWYRQAPGKEREFVAASTKRGGSTYYADSVKGRFTISRDNAKNTVYLLLNSLKPEDTAVYYCAAYKQDIGYYWGQGTQVTVSS	high polyreactivity
QDQLVESGGGLVQAGGSLRLSCAASGATYRNNAMGWYRQAPGKERELVAAISRGGGSTYYADSVNGRFTISRDNAKNNVYLQMNSLKPEDTAVYYCARRPTGIYDYWGQGTQVTVSS	high polyreactivity
QDQLVESGGGLVQAGGSLRLSCAASGFIFDTYAMGWYRQAPGKERELVAVISSGGSTYYADSVKGRFTISRDNAKNTVYLQMNSLKPEDTAVYYCAADSGYLGIYGDEYSWGQGTQVTVSS	low polyreactivity
QDQLVESGGGLVQAGGSLRLSCAASGFIFWRNTMGWYRQAPGKERELVAVITRGGSTYYADSVKGRFTISRDNAKNTVYLQMNSLKPEDTAVYYCAALNDYYKTFSGYDYWGQGTQVTVSS	low polyreactivity
QDQLVESGGGLVQAGGSLRLSCAASGFTFAGYAMGWYRQAPGKERELVAAITYSGGRTYYADSVKGRFTISRDNAKNTVYLQMNSLKPEDTAVYYCAARNYRYPGRYVYWGQGTQVTVSS	high polyreactivity
QDQLVESGGGLVQAGGSLRLSCAASGFTFNIYAMGWYRQAPGKERELVAAISWSGGRTNYADSVKGRFTISRDNAKKTVYLQMNSLKPEATAVYYCAVRYKSWYGFNYWGQGTQVTVSS	high polyreactivity
QDQLVESGGGLVQAGGSLRLSCAASGFTFNWKDMGWYRQAPGKERELVAAISGGASTYYADSVKGRFTISRDNAKNTVYLQMNSLKPEDTAVYYCAADLDEWGYLFDYWGQGTQVTVSS	low polyreactivity
QDQLVESGGGLVQAGGSLRLSCAASGFTFRRYAMGWYRQAPGKERELVAAISYTGGITYYADSVKGRFTISRDNAKNTVYLQMNSLKPEDTAVYYCAAESVWTWDYTTAGMDYWGQGTQVTVSS	high polyreactivity

Sequence	polyreactivity (PSR sort gate)
QDQLVESGGGLVQAGGSLRLSCAASGFTFVYNAMGWYRQAPGKERELVAAITSGGNTYYADSVKGRFTISRDNAKNTVYLQMNSLKPEDTAVYYCAADRFTVRMDYWGQGTQVTLSS	high polyreactivity
QDQLVESGGGLVQAGGSLRLSCAASGFTFWEYAMGWYRHAPGKERELVAAISRGTSTYYADSVKGRFTISRDNAKNTVYLQMNSLKPEDTAVYYCASAPSYYPARHGYWGQGTQVTVSS	low polyreactivity
QDQLVESGGGLVQAGGSLRLSCAASGFTFYAYSMGWYRQAPGKERELVAAITYIGSTYYADSVKGRFTISRDNAKNTVYLQMNSLKPEDTAVYYCAAVKVFLGLGYDYWGQGTQVTVSS	low polyreactivity
QDQLVESGGGLVQAGGSLRLSCAASGFTFYLYTMGSYRQAPGKERELVATITSDGGTNYADSVKGRFTISRDNAKNTVYLQMNSLKPEDTAVYFCNAASRRGSRKQAKYDYWGQGTQVTVSS	low polyreactivity
QDQLVESGGGLVQAGGSLRLSCAASGFTFYSYAMGWYRQAPGKERELVAAISYRGGSTYYADSVKGRFTISRDNAKNTVYFQMNSLKPEDTAVYYCAARSPSAAYGSYGVYYWGQGTQVTVSS	high polyreactivity
QDQLVESGGGLVQAGGSLRLSCAASGFTLHVYAMGWYRQAPGKERELVAAISTGGNTNYGDSVKGRFTISRDNAKNTVYLQMNSLKPEDTAVYYCNARYTSRRSRRPYYYWGQGTQVTVSS	high polyreactivity
QDQLVESGGGLVQAGGSLRLSCAASGGIFKSNTMGWDRTAHGKERELVAAITYSDGGTYYADSVKGRFTISRDNAKNTVYLQMNSLTPEDTAVYYCAVDYDTFYWHHYPGEIDHWGQGTQVNVSS	low polyreactivity
QDQLVESGGGLVQAGGSLRLSCAASGGNFPPYDMGWYRQAPGKERDLVATISSDSTNYADSVKGRFTISRDNAKNTVYLQMNSLKPEDSAVYYCAVRFYWAPGGGEYDYWGQGTQVTVSS	low polyreactivity
QDQLVESGGGLVQAGGSLRLSCAASGIIFDDNTMGWYRQAPGKERELVAAISSSGGSTYYADSVKGRFTISRDNAKNTVYLQMNSLKPEDTAVYYCAAAVYYTYPYIVYRNYPEFDYRGQGTQVTVSS	low polyreactivity
QDQLVESGGGLVQAGGSLRLSCAASGIIFRNYAMGWYRQAPGKERELVATIRYRGGRTYADSVKGRFTISRDNAKNTVYLQMNSLKPEDTAVYYCNARRLSDYGDYDYWGQGTQVTVSS	high polyreactivity
QDQLVESGGGLVQAGGSLRLSCAASGITFAYYAMGWYTQAPGKERELVAGISKSGGRTYYADSVKGRFTISRDHAKNTVYLQMNSLKPEDTAVYYCAAQDARRIVYYRYYYWGQGTQVTVSS	high polyreactivity
QDQLVESGGGLVQAGGSLRLSCAASGITFPNYAMGWYGQAPGKERELVAAISRGDSTYYADSVKGRFTISRDNAKNTVYLQMNSLKPEDTAVYYCAARYGRYWSSSGSWTPYGYWGQGTQVTVSS	high polyreactivity
QDQLVESGGGLVQAGGSLRLSCAASGLIFLYPMGGYRQAPGKERELVAAISNGGSTYYADSVKGRFTISRDNAKNTVYLQMNSLKPEDTAVYFCAAKGVRRRYRPDMYYWGQGTQVTVSS	high polyreactivity
QDQLVESGGGLVQAGGSLRLSCAASGLIFTGNVMGWYRQEPGKERELVAAISRSGGRTYYADSVKGRFTISRDNAKNTVYLQMNSLKREDTAVYYCNKVSPERVYYGSYFRYYYWGQGTQVTVSS	high polyreactivity
QDQLVESGGGLVQAGGSLRLSCAASGLIFVRYAMGWYRQAPGKERELVATITWSGGTTYADSVKGRFTISRDNAKKTVYLQMNSLNPEDTAVYYCAVASGPELDYWGQGTQVTVSS	low polyreactivity
QDQLVESGGGLVQAGGSLRLSCAASGLTFAPYAMGWYREAPGKERELVAAISNGGSTYYADSVKGRFTISRDNAKNTVYLQMISLKPEDTAVYYCADRAFYFWRGYDYWGQGTQVTVSS	high polyreactivity
QDQLVESGGGLVQAGGSLRLSCAASGLTFYVNAMGWYRQAPGTERELDAAITWSGGSTHYADSVKGRFTISRDNAKNTVYLQMNSLKPEDTAVYYCGRATFQNSYVAYDYCGQGTQVTVSS	low polyreactivity
QDQLVESGGGLVQAGGSLRLSCAASGRIFAGYTMGWSRQAPGKERELVAAISWSGGRTYYADSVKGRFTISRDNAKNTVYLQMNSLKPEDTAVYYCNIVGWYHNYYYWGQGTQVTVSS	high polyreactivity
QDQLVESGGGLVQAGGSLRLSCAASGRIFDRYAMGWYRQAPGKERELVAAISGRTGSTYYADSVKGRFTISRDNAKNTVYLQMNSLKPEDTAVYYCAKRSYWDGVRYDYWGQGTQVTVSS	high polyreactivity
QDQLVESGGGLVQAGGSLRLSCAASGRIFEGNAMGWYRQAPGKEREFLAAISDGGSTNYADSVKGRFTISRDNAKNTVYLQLNSLKPEETAVYYCNVGANVYMLYFPSRGGVYDYGYWGQGTQVNVSS	low polyreactivity
QDQLVESGGGLVQAGGSLRLSCAASGRIFGWYAMGWYRQAPGKEREFVAAISRGGSTNYADSVKGRFTISRDNAKNTVYLQMNSLKAEDTAVYYCNARKRGSRLRREFDYWGQGTQVTVST	high polyreactivity
